The target of assay [1] is T1, human GCGR (full-length glucagon receptor of 477 amino acids) (human, UniProt P47871 26-477).
T1 construct: Expressed from a full-length plasmid on CHO / CHO-K1 cells; also called hGCGR
The assay can be described thus: competitive cell ELISA on GCGR-overexpressing CHO cells, biotin-labeled against unlabeled antibody; competitor hu1803-9. The text has this:
(§1) The GCGR epitopes bound by GCGR antibodies were classified by ELISA assay, in which the competitive binding of the biotin-labeled antibodies with different concentrations of the standard antibody to GCGR-overexpressing CHO cells was detected. The method for preparing the cell plate was the same as that of Test Example 1. The following specific procedures are as follows: The antibody was labelled according to the biotin labeling kit instructions (Dojindo
(§2) Molecular Technologies, Inc. LK03). The unlabeled test antibody was diluted to a range of concentrations with sample dilution solution in a 96-well cell plate, 50 μl/well, and incubated at 37° C. for 2 hours. After the incubation was finished, the plate was washed 3 times with PBST, 50 μl/well of biotin-labeled antibody diluted with sample dilution solution was added, at a concentration of 0.1 μg/ml, incubated at 37° C. for 2 hours, the plate was washed 3 times with PBST, and HRP-labeled goat-anti-human secondary antibody (JacksoW ImmuWo Research, Cat Wo. 109-035-003) was added, and incubated at 37° C. for 1 hour. The plate was washed 3 times with PBST, 50 μl/well of TMB chromogenic substrate (KPL, Cat No. 52-00-03) was added, incubated at room temperature for 10 min, and 50 μl/well of 1M H₂SO₄ was added to stop the reaction. The absorbance value was read by a microplate reader (Thermo scientific Multiskan MK3) at a wavelength of 450 nm, and the data was analyzed with GraphPad Prism 5.

Assay [2] has as its target T1, human GCGR (full-length glucagon …). The assay can be described thus: cell-based or functional assay.
For assay [3] the target is unchanged. In words: competitive cell ELISA on GCGR-overexpressing CHO cells, biotin-labeled against unlabeled antibody; competitor hu1810-12.
Text: as §1, §2
A general note: ELISA stands for enzyme-linked immunosorbent assay.

Assay [4] has the same target. The assay can be described thus: cell-based or functional assay. The source holds these as a separate data set.
A further assay has as its target Cynomolgus monkey GCGR (cynomolgus monkey). The assay can be described thus: cell-based or functional assay.
For another assay, the target named is Mouse GCGR (mouse, UniProt Q61606 27-485). In words: cell-based or functional assay.
Assay [5] addresses T1, human GCGR (full-length glucagon …). In words: competitive cell ELISA on GCGR-overexpressing CHO cells, biotin-labeled against unlabeled antibody; competitor ch1808.
Text: as §1, §2

Read-outs that look alike come from different tables or passages of the source.

T1 sequence (P47871 26-477 limits assumed): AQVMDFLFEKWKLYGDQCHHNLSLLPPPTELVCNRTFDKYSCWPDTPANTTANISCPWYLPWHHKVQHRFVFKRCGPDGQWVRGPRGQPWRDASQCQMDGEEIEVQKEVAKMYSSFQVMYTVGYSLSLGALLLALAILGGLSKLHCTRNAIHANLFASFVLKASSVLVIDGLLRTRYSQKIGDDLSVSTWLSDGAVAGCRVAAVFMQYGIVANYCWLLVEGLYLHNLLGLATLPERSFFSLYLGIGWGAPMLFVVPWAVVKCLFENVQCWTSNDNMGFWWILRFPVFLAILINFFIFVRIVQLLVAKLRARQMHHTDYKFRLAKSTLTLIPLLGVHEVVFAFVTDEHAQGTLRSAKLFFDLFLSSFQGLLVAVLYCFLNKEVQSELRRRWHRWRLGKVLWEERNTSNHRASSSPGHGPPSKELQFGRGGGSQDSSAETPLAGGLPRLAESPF
Sequence of Mouse GCGR (Q61606 27-485): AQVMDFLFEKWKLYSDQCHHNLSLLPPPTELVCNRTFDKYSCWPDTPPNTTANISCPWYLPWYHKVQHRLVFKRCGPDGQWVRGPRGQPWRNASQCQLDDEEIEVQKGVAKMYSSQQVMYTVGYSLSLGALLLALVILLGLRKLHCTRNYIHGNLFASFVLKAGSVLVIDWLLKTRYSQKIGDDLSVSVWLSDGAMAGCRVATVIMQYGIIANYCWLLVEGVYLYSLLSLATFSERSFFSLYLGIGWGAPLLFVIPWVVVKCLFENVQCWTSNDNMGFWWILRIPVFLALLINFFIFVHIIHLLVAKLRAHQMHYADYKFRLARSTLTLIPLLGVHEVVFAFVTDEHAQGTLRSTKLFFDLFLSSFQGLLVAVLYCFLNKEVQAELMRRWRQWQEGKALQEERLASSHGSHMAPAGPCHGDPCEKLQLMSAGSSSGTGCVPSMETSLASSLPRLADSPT

B1: hu1803-9 (antibody, human IgG4 S228P, kappa, F234A L235A, V domains shown)
VH: EVQLVQSGAEVKKPGASVKVSCKASGYTFTDYWIEWVRQAPGQGLEWMGEILPGSTYTNYNEKFKGRVTMTRDTSTSTVYMELSSLRSEDTAVYYCARGLSTLMAVDYFDYWGQGTTVTVSS
VL: DIQMTQSPSSLSASVGDRVTITCRASQDISNYLNWYQQKPGKAVKLLIYYSSTLHSGVPSRFSGSGSGTDYTLTISSLQPEDFATYYCQQTNIFPWTFGGGTKVEIKR
notes: IgG4-AA / kappa humanized antibody; also called hu1803_VH.1 + hu1803_VL.1B; GCGR monoclonal antibody
For B1, the “competition efficiency IC %” value in assay [1], in assay [3] and in assay [5] was 100% throughout. Further, the IC50 (as a rule, the concentration needed to halve the response being measured) worked out at 54 nM in assay [2], 78.4 nM in assay [4], 220 nM with Cynomolgus monkey GCGR and 11.2 nM with Mouse GCGR. In addition, the “Imax (%)” value (in assay [2]; with Cynomolgus monkey GCGR; with Mouse GCGR) was 100% throughout. The molecule further gave an Imax in assay [4] of 100%.

The record behind these values is patent US20220153853A1 (JIANGSU HENGRUI MEDICINE, published 2022).
